Molecular target: MT-100
Assay: BLI

Kd: 2.5 nM
koff: 0.0011 s⁻¹
B1: extracellular domain of human Tie2 fused with Fc (hTie2-ECD-Fc) (Fc fusion)
chain: AMDLILINSLPLVSDAETSLTCIASGWRPHEPITIGRDFEALMNQHQDPLEVTQDVTREWAKKVVWKREKASKINGAYFCEGRVRGEAIRIRTMKMRQQASFLPATLTMTVDKGDNVNISFKKVLIKEEDAVIYKNGSFIHSVPRHEVPDILEVHLPHAQPQDAGVYSARYIGGNLFTSAFTRLIVRRCEAQKWGPECNHLCTACMNNGVCHEDTGECICPPGFMGRTCEKACELHTFGRTCKERCSGQEGCKSYVFCLPDPYGCSCATGWKGLQCNEACHPGFYGPDCKLRCSCNNGEMCDRFQGCLCSPGWQGLQCEREGIQRMTPKIVDLPDHIEVNSGKFNPICKASGWPLPTNEEMTLVKPDGTVLHPKDFNHTDHFSVAIFTIHRILPPDSGVWVCSVNTVAGMVEKPFNISVKVLPKPLNAPNVIDTGHNFAVINISSEPYFGDGPIKSKKLLYKPVNHYEAWQHIQVTNEIVTLNYLEPRTEYELCVQLVRRGEGGEGHPGPVRRFTTASIGLPPPRGLNLLPKSQTTLNLTWQPIFPSSEDDFYVEVERRSVQKSDQQNIKVPGNLTSVLLNNLHPREQYVVRARVNTKAQGEWSEDLTAWTLSDILPPQPENIKISNITHSSAVISWTILDGYSISSITIRYKVQGKNEDQHVDVKIKNATITQYQLKGLEPETAYQVDIFAENNIGSSNPAFSHELVTLPESQAPADLGGGKMLL
